{"source": "paper PMC6137056", "key": {"[1]": {"test_system": "UVI31+ (wild type) (Chlamydomonas reinhardtii), PDB:5ZB6_1", "experiment": "EMSA", "conditions": "ITC: 10 mM Tris-HCl pH 7.5, 50 mM NaCl, 5% glycerol, 5 mM MgCl2, 0.1 mM EDTA, 25 C, EMSA: 10 mM Na-phosphate pH 7.5, 10 mM NaCl, 1 mM MgCl2, 37 C, 5 min, 1 uM …"}, "[2]": {"test_system": "UVI31+ (wild type) (Chlamydomonas reinhardtii), PDB:5ZB6_1", "experiment": "ITC", "conditions": "ITC: 10 mM Tris-HCl pH 7.5, 50 mM NaCl, 5% glycerol, 5 mM MgCl2, 0.1 mM EDTA, EMSA: 10 mM Na-phosphate pH 7.5, 10 mM NaCl, 1 mM MgCl2, 37 C, 5 min, 1 uM …; for Ka (M-1 (unit not given)): 5 mM MgCl2, 25 C"}}}
{"substance": "50-bp dsDNA (EMSA)", "values": [{"measurement": "Kd", "setting": "[1]", "value": 1.1, "unit": "µM"}]}
{"substance": "CGCGAATTCGCG (double strand) [12-mer self-complementary ds-DNA]", "values": [{"measurement": "Ka (M-1 (unit not given))", "setting": "[2]; K1, sequential binding model", "value": "3.05e+06"}, {"measurement": "Ka (M-1 (unit not given))", "setting": "[2]; K2, sequential binding model", "value": 11400}, {"measurement": "Kd", "setting": "[2]; apparent Kd, two sets of sites, 5 mM MgCl2, 50 mM NaCl, pH 7.5, 25 C", "value": 5.36, "unit": "µM"}]}
{"substance": "ssDNA (EMSA, 50-mer)", "values": [{"measurement": "Kd", "setting": "[1]; 1 mM MgCl2, partial loss of ssDNA by cleavage", "value": 1.4, "unit": "µM"}]}
